Source: US12644128B2, “Method for producing HSL protein having catalytic activity for 2-oxoglutaric acid-dependently oxidizing 4-HPPD inhibitor” (National Agriculture and Food Research Organization, priority 2017, dated 2026)
“Also recorded” adds a separate entry of the source.

Tests used:
[1] = test system: benzobicyclon-susceptible cultivar "Yamadawara"; assay: Resistance to BBC of rice expressing OsHSL1 or its F140H mutant; type: in vivo; settings: T1 seeds, MS medium containing 0.25 μM BBC, 30° C., bright place, 8 days
Method: Next, the efficacy of the F140H mutation was confirmed using rice. Specifically, first, an mHSL1 gene obtained by modifying phenylalanine at position 140 in a rice HSL1 cDNA gene to histidine was prepared. Subsequently, the mutated gene or an HSL1 gene in which the mutation was not introduced was linked to downstream of the 35S promoter and was cloned together with a hygromycin-resistance gene expression cassette in the binary vector. Then, these vectors were each introduced into a benzobicyclon-susceptible cultivar “Yamadawara” by an agrobacterium method and recombinant rice was grown.
The recombinant rice (T1) seeds thus produced and the seeds of the original cultivar “Yamadawara” were tested and seeded on an MS medium containing 0.25 μM BBC in a sterile manner and grown at 30° C. in a bright place for 8 days.

[2] = 4-HPPD inhibitor decomposition activity by HPLC, substrate tembotrione; type: biochemical; settings: cell-free synthesized protein, not shown in the figures
Method: (§1) Then, the amounts of the synthesized proteins obtained in Examples 1 to 4 as described above were estimated as described below, followed by the analysis on the 4-HPPD inhibitor decomposition activities. Cell-free protein synthesis was conducted without adding [^14C]-Leucine Leucine under the same conditions as those in the estimation of the synthesized amount to estimate the protein concentration of this translation reaction liquid from the above-described estimation. Then, 100 μl of the translation reaction liquid was subjected to buffer exchange to a basic translation buffer (30 mM HEPES-KOH (pH=7.8), 100 mM KOAc) by using the illustra MicroSpin G-25 column (manufactured by GE Healthcare). The amounts of the solution before and after the buffer exchange were measured and the estimated protein concentration was corrected. […] Elution was conducted at a flow speed of 1 mL/min and a column temperature of 40° C. under solvent conditions of acetonitrile:water (1% acetic acid)=55:45 or 50:50 (BBC-OH), acetonitrile:water (1% acetic acid)=45:55 (Sulcotrione), acetonitrile:water (1% acetic acid)=45:55 (Mesotrione), acetonitrile:water (1% acetic acid)=55:45 or 50:50 (tefryltrone), and acetonitrile:water (1% acetic acid)=55:45 or 50:50 (Tembotrione), respectively, and the compound was detected at an ultraviolet wavelength of 286 nm.

[3] = 4-HPPD inhibitor decomposition activity by HPLC, substrate sulcotrione; type: biochemical; settings: cell-free synthesized protein; FeCl2, ascorbic acid, 2-oxoglutarate; 30° C. for 3 hours; HPLC
Text: (§2) Then, the decomposition reaction of a 4-HPPD inhibitor was examined in the presence of divalent iron ions, 2-oxoglutarate, and molecular oxygen in a test tube by a method described later using the HIS1 protein prepared by this cell-free protein synthesis system.
(§3) Here, in commercially-available wheat germ extracts, dithiothreitol (DTT) is used as a reducing agent and a protein synthesizing reaction liquid also contains DTT. It was confirmed in advance by liquid chromatography that under the coexistence of divalent iron ions and ascorbic acid, which is a stabilizer for the divalent iron ions, DTT generated radical compounds and secondarily affected the enzyme reaction of HIS1 proteins. For this reason, in the present Example, an unreported protein synthesizing reaction system using Tris (2-carboxyethyl) phosphine (TCEP) as a reducing agent instead of DTT was newly constructed, with which the synthesis of HIS1 proteins and the like was conducted to examine the 4-HPPD inhibitor decomposition activity of these. The decomposition activity was analyzed on the reaction liquid of the protein and the 4-HPPD inhibitor using a high-performance liquid chromatography (mobile phase; 0.5% acetic acid water:acetonitrile=65:35, flow rate; 1 mL/min, feeding; isocratic, column; CAPCELL PAK ADME S5). […]
(§4) Cell-free protein synthesis was conducted without adding [^14C]-Leucine Leucine under the same conditions as those in the estimation of the synthesized amount to estimate the protein concentration of this translation reaction liquid from the above-described estimation. […] The amounts of the solution before and after the buffer exchange were measured and the estimated protein concentration was corrected. […]
(§5) Note that the 5-point scale of the decomposition activity in each of FIGS. 12 to 17 is based on a relative value of the degree of decrease in a substrate-derived peak area detected by HPLC where the degree of decrease in the HIS1 protein was designated by 5. […]

[4] = 4-HPPD inhibitor decomposition activity by HPLC, substrate tefuryltrione; type: biochemical; settings: cell-free synthesized protein; FeCl2, ascorbic acid, 2-oxoglutarate; 30° C. for 3 hours; HPLC
Text: as §2, §3, §4, §5

[5] = 4-HPPD inhibitor decomposition activity by HPLC, substrate BBC-OH; type: biochemical; settings: cell-free synthesized protein; FeCl2, ascorbic acid, 2-oxoglutarate; 30° C. for 3 hours; HPLC
Text: as §2
Here, in commercially-available wheat germ extracts, dithiothreitol (DTT) is used as a reducing agent and a protein synthesizing reaction liquid also contains DTT. It was confirmed in advance by liquid chromatography that under the coexistence of divalent iron ions and ascorbic acid, which is a stabilizer for the divalent iron ions, DTT generated radical compounds and secondarily affected the enzyme reaction of HIS1 proteins. For this reason, in the present Example, an unreported protein synthesizing reaction system using Tris (2-carboxyethyl) phosphine (TCEP) as a reducing agent instead of DTT was newly constructed, with which the synthesis of HIS1 proteins and the like was conducted to examine the 4-HPPD inhibitor decomposition activity of these. The decomposition activity was analyzed on the reaction liquid of the protein and the 4-HPPD inhibitor using a high-performance liquid chromatography (mobile phase; 0.5% acetic acid water:acetonitrile=65:35, flow rate; 1 mL/min, feeding; isocratic, column; CAPCELL PAK ADME S5).
Then, the amounts of the synthesized proteins obtained in Examples 1 to 4 as described above were estimated as described below, followed by the analysis on the 4-HPPD inhibitor decomposition activities.
Cell-free protein synthesis was conducted without adding [^14C]-Leucine Leucine under the same conditions as those in the estimation of the synthesized amount to estimate the protein concentration of this translation reaction liquid from the above-described estimation. Then, 100 μl of the translation reaction liquid was subjected to buffer exchange to a basic translation buffer (30 mM HEPES-KOH (pH=7.8), 100 mM KOAc) by using the illustra MicroSpin G-25 column (manufactured by GE Healthcare). The amounts of the solution before and after the buffer exchange were measured and the estimated protein concentration was corrected.
An enzyme reaction liquid was prepared by mixing 250 mM of HEPES-KOH (pH 7.0) with a mixture liquid, which contained 0.25 mM of FeCl2, 1.5 mM of ascorbic acid, 1.5 mM of 2-oxoglutarate, and 0.75 mM of a substrate, and a translation reaction liquid, which contained a synthesized enzyme protein, in a proportion of 40% and 60%, respectively. After incubation at 30° C. for 3 hours, 100% methanol in the same amount as the enzyme reaction liquid was added and sufficiently mixed, followed by being left to stand for 5 minutes on ice. This was subjected to centrifuge separation (20, 400 g, 20 minutes, 4° C.) and the supernatant was passed through Cosmonice Filter W (0.45 μm) (manufactured by Nacalai Tesque, Inc.) to obtain a sample for high-performance liquid chromatography. The analysis on the substrate and the product before and after the enzyme reaction was conducted by loading a column_Pro C18 (150×4.6 mm I.D.) (manufactured by YMC Co., Ltd.) on a high-performance liquid chromatography device_ELITE LaChrom L-2000 series (manufactured by Hitachi, Ltd.). Elution was conducted at a flow speed of 1 mL/min and a column temperature of 40° C. under solvent conditions of acetonitrile:water (1% acetic acid)=55:45 or 50:50 (BBC-OH), acetonitrile:water (1% acetic acid)=45:55 (Sulcotrione), acetonitrile:water (1% acetic acid)=45:55 (Mesotrione), acetonitrile:water (1% acetic acid)=55:45 or 50:50 (tefryltrone), and acetonitrile:water (1% acetic acid)=55:45 or 50:50 (Tembotrione), respectively, and the compound was detected at an ultraviolet wavelength of 286 nm.
as §5

[6] = 4-HPPD inhibitor decomposition activity by HPLC, substrate mesotrione; type: biochemical; settings: cell-free synthesized protein, not shown in the figures
Method: as §1

B1: OsHSL1 protein: rice-derived HSL protein, typically a protein having an amino acid sequence of SEQ ID NO: 4 (protein, listed as Oryza sativa)
chain: MADESWRTPAIVQELAAAGVEEPPSRYVLGEKDRSDELVAAELPEPIPVVDLSRLAGADEAAKLRAALQNWGFFLLTNHGVETSLMDDVLNLAREFFNQPIERKRKFSNLIDGKNFQVEGYGTDRVVTQDQILDWSDRLFLRVEPKEERNLAFWPDHPESFRDVLNEYASRTKRIRDDIVQAMSKLLGLDEDYFFDRLNKAPALARFNYYPPCPRPDLVFGVRPHSDGSLFTILLVDEDVGGLQIQRDGKWYNVQVTPNTLLINLGDTMEVLCNGIFRSPVHRVVTNAERERISLAMFYSVNDEKDIGPAAGLLDENRPARYRKVSVGEFRAGIIGKFSRRERYIDSLKI
[1]
  BBC resistance (growth condition): whitened
[2]
  tembotrione decomposition activity: only very weak decomposition activity
[3]
  sulcotrione decomposition activity: hardly observed; also recorded: only very weak decomposition activity
[4]
  tefuryltrione decomposition activity: lower than that of the HIS1 protein; also recorded: had the decomposition activity, which was less effective than that of the HIS1 protein
[5]
  BBC-OH decomposition activity: hardly observed; also recorded: only very weak decomposition activity
[6]
  mesotrione decomposition activity: only very weak decomposition activity
